# The nanobody polyreactivity screen of Harvey et al. (2022)
# Experiment: yeast display, Sf9 membrane polyspecificity reagent, FACS + sequencing; frameworks hold sequencing errors
# Summary of the method: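 Galactose-induced (36–48 hours) yeast carrying a synthetic nanobody display library were exposed to 10% biotinylated, detergent-solubilized Sf9 membrane reagent at 4 °C for 1 hour. FACS followed streptavidin microbead enrichment, using low and high (top ~1%) gates for expression (anti-HA) and reagent binding (streptavidin). Colony PCR, MiSeq 2 × 250 sequencing and CDR-length filtering followed. Labels for polyreactivity reflect the gate of origin.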
row,Sequence,polyreactivity (PSR sort gate)
1,QDQLVESGGGLVQAGGSLRLSCAASGSTFVDNAIGWYRQAPGKERELVAAISRGGSTHYADSVKGRFTISRDNAKNTVYLQMNSLKPEDTAVYYCAAVIDSREEYWGQGTQVTVSS,high polyreactivity
2,QVQLVESGGGLVQAGRSLRLSCAASGRTFDEYAMGWYRQAPGKERELVAAISARGGRTYYADSVKGRFTISRDNAKNTVYLQMNSLKPEDTAVYYCAAAGYITRYDRYDYWGQGTQVTVSS,high polyreactivity
3,QVQLVESGGGLVQAGGSLRLSCAASGFIFSYYAMGWYRQAPGKEREWVAAISKTGGNTYYADSVKGRFTISRDNAKKTVYLQMNSLKPEDTAVYYCNALRGDWRDMGYCGQGTQVTVSS,high polyreactivity
4,QVQLVESGGGLVQAGGSLRLSCAASGSTFQRYTMGWYRQPPGKERELVAAISQSGGRTYYADSVKGRFTISRDNAKNTVYLQMNSLKPEDTAVYYCNAASRTKFDYWGQGTQVTVTS,high polyreactivity
5,QDQLVESVGGLVQAGGSLRLSSAASGFIFYLYAIGWDRQAPGKERDLVAAITRRGGSTYYEDSVKGRFTISRDNAKNTVYLQMNSLKPEDTAVYDCAADHYGFFSAGDFDYWGQGTQVNVSS,high polyreactivity
6,QVQLVESGGGLVQAGGSLRLSCAASGNIFKYYTMRWYRQAPGKERELVAAITSGGRTNYADSVKGRFTISRDNAKNTVYLQMNSLKPEDTAVYYCAAYDVIYSQGFDYWGQGTQVTVSS,low polyreactivity
7,QVQLVESGGGLVQAGGSLRLSCAASGSIFRTYAMGWYRQAHGKETELVAAITRSGGTTYYADSVKGRFTISRDNAKNTVYLQMNSLKPEDTAVYFCNAQGYWYKGRRRGDYWGQGTQVTVSS,high polyreactivity
8,QVQLVESGGGLVQAGGSLRLICAASGFISNINVMGWYRQAPGKERELVAAITYIDGSTFYADSVKGRFTISRDNAKNTVYLQMNSLKPEDTAVYYCAKTRVRGSEFGYWGQGTQVTVSS,low polyreactivity
9,QVQLVESGGGLVQAGGSLRLSCSASGRTFRWYTMGWYRQAPGKEREFVAAITWSGSSTDYADSVKGRFTISRDNAKNTVYFQMNSLKPEDTAVYYCAAENRRRRDDYWGQGTQVTVSS,high polyreactivity
10,QVQLVESGGGLVQAGGSLRFSCAASGLIFRGYTMGWYRQAPGKEREFVAAITRRGTSTYYADSVKGRFTISRDNAKNTVYLQINRLKPEDTAVYYCAARSVSGPRGYPYDYWGQGTQVTVSS,high polyreactivity
11,QVQLVESGGGLVQAGGSLRLSCAASGIIFNSNAMGWYRQAPGKERELVAGISRGSSTSYADSVKGRFTISRDNAKNPVYLQMNSLKPADNAVYFCNAEVYSPQQFTPPDRYYYWGQGTQVTVSS,low polyreactivity
12,QVQRVDSGGGLVQAGGSLRLTCAASGFTFSQYVMGWYRQAPGKARELVAAISYRGGSTYYADSVKGRFTISRDNAKNTVYVQMNSLKPEDTAVYYCAAVAYSWHNRYDYWGQGTQVTVSS,high polyreactivity
13,QVQLVESGGGLVQAGGSLRLSCAASGRTFDDYTMGWYRQAPGKERELVAAITGGGSTNYADSVKGRFTISRDNAKNTVYLQMNSLKPEDTAVYYCNAEYSRSYRYDEGYWGQGTQVTVSS,low polyreactivity
14,QVQLVESGGGLVQAGGSLRLSCAASGGTFSRNAMGWYRQAPGKERELVAAITSGGRTNYADSVKGRFTISRDNAKNTVYLKMNSLKAEDTAVYYCAARKGKETLYHSTPPYYYWGQGTQVTVSS,high polyreactivity
15,QVQLVESGGGLVQAGGILRLSCASSGRTFRYYAKGWYRQAPGKERELVATISKSGGSTYYADSVKGRFTISRDNAKNTVYLQMNRLKPEDTAVYYCAAVGPYRWYDYWGQGTQVTVSS,high polyreactivity
16,QVQLVESAGRLVQAGGSLRLSCAASGSTYSSNAMGGYRQEPGKERELVAAITTSGGSTYYADSVKGRFTISRDNAKNTVYLQMNSLIPADTAVYYCAADLVHAYQWSIFLYGYWGLGTQVTVSS,low polyreactivity
17,QVQLVESGGGLVQAGGSLRISSAASGRIFRVNGIGWYIQAPGKERELVAAIRRSGGSTYYADSVKGRFTISRDNAKNSVYLLMNILKPDDTAVYFCAAPVRQSSYTRYDSWGQGTQVTVSS,high polyreactivity
18,QVQLVESGGGLVQAGGSLRLSCAASGSIFEYNAMGWYRQAPGKERELVAAISWSSGTTYYADSVKGRFTISRDNAKNTVYLQMNSLKPEDTAVNYCIAGRYGKDSDYWGQGTQVTVSS,low polyreactivity
19,QVQLVESGGGLVQAGGSLRLSCAASGRIRGNVMGWYRQAPGKERELVAAISKSGGSTYYADSVKGRFTISRDNAKNTVYLQMNSLKPEDTAVYYCAAAYGQYTSYYRFGSWGQGTQVTVSS,high polyreactivity
20,QVQLVESGVGLVQAGGSLRLSCAASGRIFAHNAMGWYRQAPGKERELVAAISTGGSTNYADSVKGRFTISRDNAKNTVYLQMNSLKPEDTAVYYCARDAYLPRIADGDGRYELVDYWGQGTQVTVSS,low polyreactivity
21,QVQLVESGGGLVQAGGSLRLSCAASGLTFSIYAMGWYRQAPGKERELVASITSSGGSTYYADSVKGRFTISRDNAKNTVYLQMNSLKPEDTAVYYCATGRSRDYDYWGQGTQVTVSS,high polyreactivity
22,QVQLVESGGGLVQAGGSLRLSCAASGRTFGRYVMGWYRQAPGKERELVAAIDGSGGSTYYADSVKGRFTISRDNAKNTVYLQMNSLKPEDTAVYYCNADVGFVGGDYWGQGTQVTVSS,high polyreactivity

row,Sequence,polyreactivity (PSR sort gate)
1,QVQLVESGGGLVQAGGSLRLSCSASGSIFRRYAMGWYRQAPGKVRELVAVITTDGSTYYADSVKGRFTISRDNAKNTVYLQMHSLKPEDTAVYYCAAEDYVIGYSGYDYWGQGTQVTVSS,low polyreactivity
2,QVQLVESGGGLVQAGGSRRLSCAASGGIFNYYTMGWYRQATGKERELVAAINSSGGNTHYADSVKGRFTISRDNAKNTVYLQMYSLKPEDTAVYYCNADARSVWFYRVDYWGQGTQVTVSS,low polyreactivity
3,QVQLVESGGGLVQAGGSLLLSCAASGRTFNYIAMGWYRQAPGKERELVAAISQGGGSTYYADSVKGRFTISRDNAKNTVYLQMNSLKPEVTAVSYFAADTWWYGKYDYWGQGTQVTVSS,low polyreactivity
4,QVQLVESGGGLVQAGGSLRLSCAASGSIFARNAMGWYRQAPGKERELVASITWSGASTYYADSVKGRFTISRDNAKNTVYVQMNSLKPEDTAVYYCAATDQKLSLDYSSYEYWGQGTQVTVSS,low polyreactivity
5,QVQLVESGGGLVQAGGSLRLSCAASGITFGRNTMGWYRQAPGKERELVAAIDSGGNTYAVSVKGRFTISRDNAKNTVYLQMNSLKPEDTAVYYCAVDGGEYSYYGTYDYWGQGTQVTVSS,low polyreactivity
6,QVQLVESGGGLVQAGGSLRLSCAASGRTCGKYAMGWYRQAPGKERELVATISRSGGSTYYADSVKGRFTISRDTAKYTVYLQMNSLKPEDTAVYYCNAVTSRYIWPPVLDRYHYWGQGTQVTLSS,high polyreactivity
7,QVHLVESGGGLVQAGGSLRLSCAASGRIFYYNTMGWYRQAPGKERELVAAITTNGGSTYYADSVKGRFTISRDNAKNTVYLQMNSLKPEDTAVYYCNRDRYPYYYAYNYWGQGTQVTVSS,low polyreactivity
8,QVQLVESGGGLVQARGSLRLSCASSGFIFSRYAMGWYRQAPGKESELVAAITSGGSTYYADSVKGRFTISRDNAKNTVYLQMNSLKPEDTAVYYCNVVSKSRISQYVGYSYDYWGQGTQVTVSS,high polyreactivity
9,QVQLVESGGGLVHAGCRLRLSCAPSGSILYYNAMGGYRQAPGNERELVAAITSGGSTYADSVKGRFTISRDNAKNTVYLQMYSLKPEDTAVDYCAADLDWSLSVFGTTLEHDDWGQGTQVTVSS,low polyreactivity
10,QDQLVESGGGLVQAGGSLRLSCAASGSTFTDYDMGWYRQAPGKERELVAAITSGGSTNYADSVKGRFTISRDNAKNTVYLQMNSLKPEDTAVYYCAAELRYYLYDVVYIVTYDYWGQGTQVTVSS,low polyreactivity
11,QVQLVESGGGLVQAGGSLRLSCAASGSIFSYYAMGWYRQAPGKERELVAAISLSTSGTHYADSVKGRFTISRDNAKNTVYLQMNSLKPEDTAVYYCAARQGYPVFLYNSRYGYWGQGTQVTVSS,low polyreactivity
12,QVQLVDSGGGLVQAGGSLRLGCAASGRIFAGYGMGWYRQAPGKERELVATITSGGSTYYADSLKGRFTISRDNAKNTVYLQMNSLKPEDTAVYYCNRYFSEALLHGSSYNRYYYWGQGTQVSVSS,low polyreactivity
13,QVQLVESGGGLVQAGGSLRLSCAASGYTFVDYAMGWYRQAPGKERELVAAISSSGARTYYAYSVKGRFTISRDNAKNSVYLQMNSLKAEDTAVYYCNTPRPYEITTPEYYYWGQGTQVTVSS,high polyreactivity
14,QVQLVESVGGLVQAGGSLRLSCAASGFTFYRYAMGWYRQAPGKERELVAAISWSGGSTYYADSVKGRFTISRDNAKNTVYLQMNSLKPEDTAVYYCAARGGYYDYYYWGQGTQVTVSS,high polyreactivity
15,QVQLVESGGGLVQAGGSLRLSCAASGFTFFFYAMGWYRQAPGKVRELVAGISQSGGNTNYADSVKGRFTISRDNAKNTVYLQMNSLKPEDTAVYYCAKTRYQYWRVTAFDYWGQGTQVTVSS,low polyreactivity
16,QVQLLESGGGLVQAGGSLRLSCAASGRTFYGYTMGWYRQAPGKEWELVAAISTGGGSTYYADSVKGRFTISRDTAKNTVYLQMNSMKREDTAVYYCAARGGSYSFRRYNFWGQGTQVTVSS,high polyreactivity
17,QVQLVESGGGLVQAGGSLRLSCAASGSTFYFYARGWYRQAPGKERELVAVISSGGTTNYADSVKGRFTISRDNAKNTVYLQMNSLKPEDTAVYYCNAEPPRGYTVSSGGEMDYWGQGTQVTVSS,low polyreactivity
18,QVQLVESGGGLVQAGGSLRLTCDASGRTFYQNTMGWYRQAPGKERELVAAISYRVGRTYYADSVKGRFSISSDNAKNTVYLQMNSLKPEDTAVYYCAAGVWWWTIPYEYWGQGSQVTVSS,high polyreactivity
19,LGQLQESGGGLVQAGGSLRLSCAASGDIFDADIMGWYREAPGKEREHVASITDGGSTNYADSVKGRFTISRDNAKNTVYLPMNSLKPENTAVLYCAAIAYPDLPTYFDYDSDYFDWGQGTQVTVSS,low polyreactivity
20,QVQLVESGGGLVQAGGSLRLSCAASGITFYGYAMGWYRQAPGKERELVAAITSGGSTYYADSVKGRFTISRDNAKNTVYLQMNSLKPEDTAVYYCARYYWIRVGRYYRYEYWGQGTQVTVSS,low polyreactivity
21,QVQLEESGGGLVQAGVSLRLSCAASGFTFDRYAMGSYRQAPAKEREMVAALSRSGTSTYYADSVKGRFTISRDNAKYTVYLQMNSLKPEDNAVYYCATRYTVYFPSRLSQYDYWGQGTQVTVSS,high polyreactivity
